{"source": "patent US20240245800A1", "about": "“HIGHLY SPECIFIC RABBIT SINGLE -DOMAIN ANTIBODIES FOR DRUG DELIVERY IN IMMUNOTHERAPY APPLICATIONS” (TECHNOPHAGE, INVESTIGAÇÃO E DESENVOLVIMENTO EM …, priority 2021, published 2024)", "molecules": {"B1": {"name": "C5: rabbit derived anti-cNHL VL sdAb clone, SEQ. ID. 3; ^99mTc radiolabelled for biodistribution (antibody, listed as Oryctolagus cuniculus, V domains shown)", "VL": "ELDLTQTPSPVSASVGGTATINCQASQSVYNNYWWAWYQQRPGHPPKLLIYETSKLASGVPSRFKGSGSGTQFTLTIIDVQCDDAATYVCAGGYGTVIDNAFGGGTELEIL", "modifications": "99mTc(CO)3 radiolabel", "notes": "ID; ^99mTc radiolabelled for biodistribution"}}, "key": {"Jurkat cells [1]": {"test_system": "Jurkat cells", "assay": "WST-1 cell viability assay on Jurkat cells", "format": "cell-based, human", "settings": "48 h treatment", "description": "(§1) FIG. 11—Cytotoxic effects of C5-DAB-SN-38. To determine the effect of C5-DAB-SN-38 on CLBL-1 and Jurkat cells, a cell viability assay was performed using the WST-1 reagent. 6×10^4 cells were seeded and treated with increasing amounts of compound. After 48 h treatment, cell viability was assessed. […] B) On the other hand, ADC had no effect on Jurkat cells, proving the specificity of the ADC. C5 was used as control. Best-fit EC50 values of each formulation were calculated using GraphPad Prism software (version 9.2.0, San Diego, CA, USA) using the log (inhibitor) vs response (variable slope) function. D) Effects of C5-DAB-SN-38 on DNA TopoI activity. To evaluate the effects of C5-DAB-SN-38 on DNA Topo I, we evaluated its activity using the Human Topoisomerase I Assay Kit. […]\n(§2) To determine the effect of VL-DAB-SN-38 in CLBL-1 and Jurkat cell proliferation, a cell viability assay was performed using the Cell Proliferation Reagent WST-1 (Roche, Basel, Switzerland). […] After 48 h treatment, cell viability was assessed using WST-1, following the manufacturer's instructions. Absorbance at 450 nm was measured using the iMark microplate Reader (Bio-Rad). […] Best-fit EC50 values of each formulation were calculated using GraphPad Prism software (version 8.0, San Diego, CA, USA) using the log (inhibitor)) vs response (variable slope) function."}, "Jurkat cells [2]": {"test_system": "Jurkat cells", "assay": "Immunofluorescence of C5 with Jurkat cells", "format": "cell-based, human"}, "CLBL-1 cells": {"test_system": "CLBL-1 cells", "assay": "WST-1 cell viability assay on CLBL-1 cells", "format": "cell-based, canine", "settings": "48 h treatment", "description": "as §1, §2"}}}
{"molecule": "B1", "values": [{"measurement": "effect on Jurkat cell viability/proliferation", "setting": "Jurkat cells [1]", "result": "does not affect cell proliferation"}, {"measurement": "fluorescence with Jurkat cells (immunofluorescence)", "setting": "Jurkat cells [2]", "result": "no detectable fluorescence"}, {"measurement": "effect on CLBL-1 (cNHL) cell viability/proliferation", "setting": "CLBL-1 cells", "result": "does not affect cell proliferation"}]}
